Kd and stoichiometry N (molar ratio EBNA2 : BS69CC-MYND monomer) data for two substances are collected here from doi:10.1101/464131.

The target in this experiment is BS69 CC-MYND domain (amino acids 480-602) (human) (UniProt Q15326). Briefly: ITC.
Sequence of BS69 CC-MYND domain (amino acids 480-602) (human) (Q15326 480-602): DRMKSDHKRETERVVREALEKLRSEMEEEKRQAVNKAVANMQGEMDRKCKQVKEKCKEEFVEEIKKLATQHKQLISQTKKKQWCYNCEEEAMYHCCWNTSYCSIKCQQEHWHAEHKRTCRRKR

Sequence of type 1 EBNA2 polypeptide T1 EBNA2_(381-445) (domain or fragment) (P12978 381-445): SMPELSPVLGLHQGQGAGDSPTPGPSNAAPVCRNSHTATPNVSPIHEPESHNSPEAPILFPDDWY

As for type 1 EBNA2 motif 2 peptide (435-445), the Kd was 47.7 µM.

For “type 1 EBNA2 polypeptide T1 EBNA2_(381-445) (domain or fragment)”, the Kd was determined as 0.95 µM and the stoichiometry N (molar ratio EBNA2 : BS69CC-MYND monomer) came out at 0.42.
